Measurements as given in patent US8597660B2, “Therapeutic approach to neurodegenerative disorders using a TFP5-peptide” (The United States of America, as represented by the …, priority 2010, dated 2013).
“Also recorded” adds a separate entry of the source.

How the values were obtained:
[1] = target: T1, Cdk5/P25 (Homo sapiens, UniProt Q00535); test: In vitro kinase (pad) assay of active Cdk5/P25 with histone H1 as substrate; type: biochemical
Description: (§1) Kinase assays were performed as previously described (Veeranna, et al., J Neurosci 18(11), 4008-4021, 1998). Briefly, 7 days in culture (7 DIC) primary rat cortical neurons were infected with P25, P35, Cdk5 wild-type, dominant negative-Cdk5 and P5 using the lentiviral gene delivery as described earlier. Cdk5 was immunoprecipitated using the polyclonal C8 antibody overnight at 4° C. and immunoglobulin isolated using Protein A sepharose beads for 2 hours at 4° C. Immunoprecipitates were washed three times with lysis buffer and then once with 1× kinase buffer containing 20 mM Tris-Cl pH 7.4, 1 mM EDTA, 1 mM EGTA, 10 mM MgCl2, 10 mM sodium fluoride and 1 mM sodium orthovanadate. Endogenous Cdks were immunoprecipitated from HEK 293 cells using their respective antibodies and treated as above. Kinase assays were performed in the same buffer containing 1 mM DTT, 0.1 mM ATP and 0.185 MBq [γ-32P] ATP with 20 μg of histone H1 as the substrate. Phosphorylation was performed in a final volume of […] incubated at 30° C. for 60 minutes, stopped by the addition of 10% SDS sample buffer and heating at 95° C. for 5 minutes. Samples were separated by SDS-PAGE, gels were stained with Coomassie, destained, dried and exposed to autoradiography. In pad assays, 25 μl aliquots of the incubation mixture were placed on a Whatman p80 paper square, washed and dried and placed in a scintillation vial for counting.
These are GST-P1 (E211-A277 of SEQ ID NO: 16), 67 amino acid residues; GST-P2 (M237-A277), 41 residues; GST-P3 (E221-L267 of SEQ ID NO: 16), 47 residues; GST-P4 (E221-L249 of SEQ ID NO: 16), 29 residues and GST-P5 (K254-A277 of SEQ ID NO: 16) 24 residues. Each was incubated with active Cdk5/P25 in a kinase assay in vitro. […] FIG. 10 provides a comparison of P5 and CIP, relative to P35.
In a dose-dependent kinase assay the effective inhibitory concentration of P5 for both the Cdk5/P25 and Cdk5/P35 complexes was evaluated. His-P5 peptide was added at different concentrations to the in vitro assay containing 100 μM [γ32-P] ATP and histone H1. Inhibition increased progressively with increasing P5 concentration in both complexes (Compare FIGS. 2A, 2B with 2C, 2D).
P5, a 24 amino acid peptide derived from Cdk5 regulator p35, was modified by conjugating it with TAT PTD at the C-terminal end and with FITC (using a GGG linker) at the N-terminus to produce a fluorescent (FITC-labeled) TFP5 (SEQ ID NO: 2) peptide. In a dose-dependent kinase assay the effective inhibitory concentration of TFP5 for both the Cdk5/P25 and Cdk5/P35 complexes was evaluated. His-P5 peptide was added at different concentrations to the in vitro assay containing 100 μM [γ32-P] ATP and histone H1. […] Data represent means of four independent experiments with error bars representing SEM (*p≦0.05, **p≦0.001).

[2] = target: T1, Cdk5/P25; test: Cdk5/P25 kinase assay after pre-incubation with β-tubulin; type: biochemical
Description: Tubulin polymerization was performed as detailed in a previous report (Hou et al., J. Biol. Chem., 282(26), 18666-18670, 2007). Briefly, active kinase Cdk5/P35 (2 ng/μL) or active Cdk5/P25 (1 ng/μL) were incubated with β-tubulin (enzyme: tubulin at 1:100) in the PEM buffer (80 mM PIPES, 2 mM MgCl2, 1 mM EGTA PH 7.0) supplemented with 1 mM GTP at 35° C. for 45 minutes. Following the incubation, Cdk5 kinase assays were performed with or without the addition of 0.45 μM or 0.90 μM P5.
To further explore this possibility, β-tubulin (which is enriched in neurons) was used to perform a study in vitro to mimic P35 interactions in cells. Cdk5/P35 and Cdk5/P25 active kinases were pre-incubated with β-tubulin (Cdk5 kinase:tubulin=1:100) respectively at 35° C. for 45 minutes to 1 hour under conditions that would promote tubulin polymerization, followed by a Cdk5 kinase assay with/without the addition of P5. […] Cdk5/P25 activity, however, was inhibited 60% after pre-incubation at the lower P5 concentration (0.45 μM) (FIG. 9B, lane 4 compared with lane 1) (p<0.01). […] On the other hand, P25, lacking the P10 domain, fails to bind these proteins, and P5 readily binds with Cdk5 in the Cdk5/P25 complex to inhibit activity.

[3] = system: Cdc2, Cdk2, Cdk4, and Cdk6; test: Kinase assay of cell cycle Cdk immunoprecipitates from HEK293 cells infected with P5-myc or treated with roscovitine; type: cell-based, human; conditions: HEK293 cells infected with P5-myc or treated with 20 μM roscovitine
Description: as §1, with “Briefly,” for “Kinase assays were performed as previously described (Veeranna, et al., J Neurosci 18(11), 4008-4021, 1998). Briefly,”, “Kinase assays were performed in the same buffer containing 1 mM DTT, 0.1 mM ATP and 0.185 MBq [γ-32P]” left out

T1 sequence (Q00535 whole entry, species assumed): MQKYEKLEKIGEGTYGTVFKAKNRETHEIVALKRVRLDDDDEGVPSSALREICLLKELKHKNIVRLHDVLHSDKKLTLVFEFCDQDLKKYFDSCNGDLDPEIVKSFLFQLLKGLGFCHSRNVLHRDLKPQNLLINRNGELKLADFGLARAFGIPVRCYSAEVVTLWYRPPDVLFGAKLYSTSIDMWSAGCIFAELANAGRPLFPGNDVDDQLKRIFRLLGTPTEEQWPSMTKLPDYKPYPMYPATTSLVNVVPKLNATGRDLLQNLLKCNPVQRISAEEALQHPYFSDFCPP

Substance: P5: 24 residue peptide derived from Cdk5 activator P35 (K254-A277 of SEQ ID NO: 16); Cdk5 inhibitory peptide (KEAFWDRCLSVINLMSSKMLQINA; listed as Homo sapiens)
- Inhibition of Cdk5/P25 activity ([1]; 0.7 μM P5): approximately 70%
- Specificity of inhibition, Cdk5/P25 versus Cdk5/P35 ([1]; in vitro (test tube) assay, 0.05 to 1.2 μM): equally inhibits each Cdk5 complex in a dose-dependent manner; also recorded: not specific for Cdk5/P25; also recorded: non-specific in vitro
- Inhibition of Cdk5/P25 activity, comparison among peptides and CIP ([1]; in vitro kinase assay, histone H1, FIG. 1): most effective inhibitor of Cdk5/P25; also recorded: more effective inhibitors of Cdk5/P25 activity than CIP
- Inhibition of Cdk5/P25 activity with unpolymerized tubulin (no pre-incubation) ([2]; 0.45 μM P5): P5 inhibits both kinases equally; also recorded: inhibited both Cdk5/P35 and Cdk5/P25 activities equally; also recorded: inhibited both complexes equally
- Inhibition of Cdk5/P25 activity pre-incubated with polymerized tubulin ([2]; 0.9 μM P5): both kinase complexes are inhibited equally; also recorded: both Cdk5 complexes were inhibited
- Inhibition of endogenous cell cycle Cdk activity [3]: virtually no effect; also recorded: no inhibition in all cases; also recorded: unaffected by P5
